Data: IntAct's records for PubMed 25465129

What follows are substances tested against ab1ip_mouse Apbb1ip (UniProt Q8R5A3).
Chain of UniProt Q8R5A3 (Q8R5A3 whole entry): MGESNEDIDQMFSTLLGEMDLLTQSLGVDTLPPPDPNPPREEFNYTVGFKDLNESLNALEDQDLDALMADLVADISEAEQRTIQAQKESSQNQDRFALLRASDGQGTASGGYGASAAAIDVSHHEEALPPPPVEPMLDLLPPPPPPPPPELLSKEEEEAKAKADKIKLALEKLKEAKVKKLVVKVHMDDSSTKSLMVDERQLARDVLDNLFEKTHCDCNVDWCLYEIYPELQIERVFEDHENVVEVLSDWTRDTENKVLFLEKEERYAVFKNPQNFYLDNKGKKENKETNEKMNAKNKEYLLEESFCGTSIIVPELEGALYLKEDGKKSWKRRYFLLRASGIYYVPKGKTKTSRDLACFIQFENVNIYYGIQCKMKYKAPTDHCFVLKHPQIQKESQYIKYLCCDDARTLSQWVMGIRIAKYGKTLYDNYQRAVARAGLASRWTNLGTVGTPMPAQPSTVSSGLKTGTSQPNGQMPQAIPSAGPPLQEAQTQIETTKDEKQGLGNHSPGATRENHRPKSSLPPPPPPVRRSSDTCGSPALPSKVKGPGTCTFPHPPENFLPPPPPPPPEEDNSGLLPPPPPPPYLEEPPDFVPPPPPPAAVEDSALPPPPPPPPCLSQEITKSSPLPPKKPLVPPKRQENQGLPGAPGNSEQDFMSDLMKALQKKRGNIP

| Substance | effect of a mutation on the interaction |
| --- | --- |
| Talin-1 (Mus musculus), P26039 V871Y | decreasing interaction strength |
| Talin-1 (Mus musculus), P26039 V871Y;V1540Y | disrupting interaction strength |
| Talin-1 (Mus musculus), P26039 V1540Y | decreasing interaction strength |
